This series deals with the molecule itself. The experiment in a line: native MS.

B1: subunit K of the Enterococcus hirae rotary ATPase (K10 membrane ring) (natural protein)
chain: MMDYLITQNGGMVFAVLAMATATIFSGIGSAKGVGMTGEAAAALTTSQPEKFGQALILQLLPGTQGLYGFVIAFLIFINLGSDMSVVQGLNFLGASLPIAFTGLFSGIAQGKVAAAGIQILAKKPEHATKGIIFAAMVETYAILGFVISFLLVLNA
By stoichiometry N is commonly meant a count of units in the complex or per binding partner. In the case of B1, the “stoichiometry N” value is 10.

Source of the values: article PMC3927129 (Science (New York, N.Y.), 2011).
